Source: the supplement of paper PMC6757056
± gives the standard deviation of the averaged measurements.

B1: library; a variant is named by its letters at N, in order (parent)
chain: GCUGUCACCGGUGUAUUACCCUAGUGGUCGACCGGUCUGAUGAGUCUNNNNNNAGACGAAACAGC

Assays:
[1] = variants of: B1; assay: FACS-Seq fitted mean relative fluorescence mCherry/BFP without ligand (log10 relative fluorescence); ligand: hypoxanthine (xanthine aptamer); higher = higher reporter protein expression; conditions: HEK293T, ligand present: no
How it was run: (§1)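 Sorting into 6 bins by mCherry/BFP followed 48 h of incubation with or without ligand. The cells were enriched HEK293T libraries lentivirally bearing an mCherry reporter with the ribozyme switch and an EF1α-BFP marker, and bin genomic DNA was PCR-amplified, barcoded and sequenced on MiSeq. Fluorescence is the fitted normal mean of the bin counts. Means were fitted on log10(mCherry/BFP), scaled to five spiked-in control ribozymes.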

[2] = variants of: B1; assay: normalized RNA/DNA level with ligand (relative to sTRSVctl = 100) (log10 (% of sTRSVctl)); ligand: hypoxanthine (xanthine aptamer); higher = less ribozyme self-cleavage, higher mRNA level; conditions: ligand concentration (+) RNA-Seq: 5 mM, HEK293T, reporter: mCherry (pCS4076), ligand present: yes
How it was run: (§2)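 RNA level was computed as RNA reads over DNA reads divided by a spiked-in non-cleaving sequence or by the top sequences, then scaled and log-transformed. Scaling was ×100 with log10, the top group was 25 sequences, and the threshold was ≥100 DNA reads. The reads came from HEK293T cells transfected at 4 µg per 6-well well with ribozyme switch library plasmids (mCherry, or eGFP in some ligand experiments). Total RNA was extracted with EDTA 72 h after transfection, with any ligand added 1 h before it.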

[3] = variants of: B1; assay: normalized RNA/DNA level without ligand (relative to sTRSVctl = 100) (log10 (% of sTRSVctl)); ligand: hypoxanthine (xanthine aptamer); higher = less ribozyme self-cleavage, higher mRNA level; conditions: HEK293T, reporter: mCherry (pCS4076), ligand present: no
How it was run: as §2

[4] = variants of: B1; assay: FACS-Seq fitted mean relative fluorescence mCherry/BFP with ligand (log10 relative fluorescence); ligand: hypoxanthine (xanthine aptamer); ligand concentration (+) FACS-Seq: 5 mM; higher = higher reporter protein expression; conditions: HEK293T, ligand present: yes
How it was run: as §1

Variant	FACS-Seq fitted mean (log10) [1]	normalized RNA/DNA level with ligand (log10) [2]	normalized RNA/DNA level without ligand (log10) [3]	FACS-Seq fitted mean (log10) [4]
GGGGGU	0.334 ± 0.062	1.935 ± 0.0072	1.86 ± 0.02	0.316 ± 0.064
GGGGGC	0.564 ± 0.051	1.85 ± 0.06	1.51 ± 0.023	0.468 ± 0.037
CGGAAU	0.0719 ± 0.0065	1.81 ± 0.052	1.42 ± 0.016	0.548 ± 0.059
CGGAAA	0.32 ± 0.016	1.87 ± 0.025	1.43 ± 0.051	0.587 ± 0.016
CGGAAG	0.266 ± 0.007	1.905 ± 0.011	1.734 ± 0.0046	0.361 ± 0.062
UGGCGA	0.345 ± 0.039	1.94 ± 0.031	1.65 ± 0.034	0.579 ± 0.11
GGGUGG	-0.2387 ± 0.0022	1.91 ± 0.046	1.54 ± 0.05	0.3262 ± 0.0019
GGGUGC	0.296 ± 0.1	1.9 ± 0.036	1.52 ± 0.017	0.348 ± 0.011
GGGUGA	0.0881 ± 0.05	1.95 ± 0.033	1.71 ± 0.031	0.487 ± 0.0065
CGGCAU	-0.119 ± 0.0088	1.9 ± 0.037	1.56 ± 0.1	0.0858 ± 0.0049
AGGCAG	0.337 ± 0.023	1.82 ± 0.037	1.45 ± 0.0028	0.534 ± 0.015
AGGCAU	-0.0543 ± 0.062	1.92 ± 0.067	1.8 ± 0.047	0.027 ± 0.034
UGGCUG	0.218 ± 0.011	2.02 ± 0.0097	1.95 ± 0.04	0.298 ± 0.023
UGGCUU	0.674 ± 0.017	1.97 ± 0.02	1.94 ± 0.03	0.66 ± 0.06
GGCGGA	0.416 ± 0.079	1.98 ± 0.043	1.837 ± 0.013	0.534 ± 0.03
UGCUAU	0.535 ± 0.025	1.93 ± 0.023	1.88 ± 0.028	0.662 ± 0.05
AGCUAC	-0.583 ± 0.06	1.96 ± 0.058	1.778 ± 0.0088	-0.175 ± 0.051
AGGUGA	0.38 ± 0.046	1.86 ± 0.028	1.46 ± 0.04	0.623 ± 0.045
CGGUUC	0.133 ± 0.2	1.964 ± 0.01	1.79 ± 0.066	0.211 ± 0.024
AGGAAA	0.102 ± 0.031	1.87 ± 0.019	1.56 ± 0.037	0.42 ± 0.058
AGGAAC	0.573 ± 0.093	1.91 ± 0.042	1.66 ± 0.039	0.568 ± 0.099
AGGAAG	-0.0152 ± 0.00091	1.63 ± 0.038	1.11 ± 0.055	0.161 ± 0.026
UGCUGA	0.117 ± 0.0063	1.92 ± 0.013	1.68 ± 0.021	0.0171 ± 0.11
GGGUCC	0.29 ± 0.12	2 ± 0.023	1.991 ± 0.019	0.3574 ± 0.0012

Variant	FACS-Seq fitted mean (log10) [1]	normalized RNA/DNA level with ligand (log10) [2]	normalized RNA/DNA level without ligand (log10) [3]	FACS-Seq fitted mean (log10) [4]
AGGUCA	0.881 ± 0.045	1.94 ± 0.071	1.68 ± 0.052	0.729 ± 0.035
AGGUCG	0.151 ± 0.023	1.861 ± 0.0041	1.53 ± 0.092	0.463 ± 0.049
CGGUAA	0.258 ± 0.03	1.814 ± 0.002	1.27 ± 0.058	0.537 ± 0.027
CGGUAG	0.498 ± 0.066	1.9 ± 0.036	1.61 ± 0.029	0.506 ± 0.0093
CGGUAU	0.0356 ± 0.0062	1.79 ± 0.05	1.41 ± 0.016	0.468 ± 0.05
GGGAGA	0.0269 ± 0.057	1.84 ± 0.02	1.429 ± 0.014	0.516 ± 0.024
GGGAGU	0.36 ± 0.0084	1.92 ± 0.047	1.63 ± 0.039	0.629 ± 0.011
GGGAGG	0.0166 ± 0.058	1.76 ± 0.021	1.3 ± 0.03	0.374 ± 0.033
GGGAGC	-0.04041 ± 0.0004	1.74 ± 0.068	1.16 ± 0.014	0.622 ± 0.026
UGGAAU	-0.0639 ± 0.013	1.887 ± 0.0035	1.659 ± 0.0056	0.205 ± 0.02
GGGUAG	-0.254 ± 0.0079	1.74 ± 0.03	1.44 ± 0.079	0.395 ± 0.063
GGGUAA	0.396 ± 0.048	1.884 ± 0.0098	1.71 ± 0.045	0.6223 ± 0.0027
GGGUAU	0.137 ± 0.2	1.94 ± 0.053	1.71 ± 0.047	0.374 ± 0.03
GGGUAC	0.1586 ± 0.00038	1.93 ± 0.06	1.68 ± 0.037	0.529 ± 0.049
CGGUGU	0.576 ± 0.076	1.965 ± 0.011	1.85 ± 0.031	0.586 ± 0.029
AGGCGU	0.521 ± 0.063	1.94 ± 0.02	1.67 ± 0.025	0.656 ± 0.01
AGGCGG	0.194 ± 0.017	1.841 ± 0.0031	1.354 ± 0.01	0.536 ± 0.039
GGGAUG	0.0328 ± 0.0034	1.79 ± 0.043	1.323 ± 0.0058	0.564 ± 0.02
AGGAGU	0.142 ± 0.026	1.8 ± 0.024	1.37 ± 0.03	0.537 ± 0.073
AGGAGA	0.176 ± 0.052	1.78 ± 0.049	1.28 ± 0.033	0.621 ± 0.034
AGGAGC	0.421 ± 0.0061	1.883 ± 0.003	1.485 ± 0.0035	0.5478 ± 0.0022
AGGAGG	0.0646 ± 0.011	1.584 ± 0.0034	1.186 ± 0.0034	0.626 ± 0.055
AGGCUG	0.279 ± 0.011	2 ± 0.04	1.78 ± 0.045	0.333 ± 0.014
AGGCUA	0.509 ± 0.0085	1.93 ± 0.031	1.811 ± 0.0095	0.617 ± 0.057

Variant	FACS-Seq fitted mean (log10) [1]	normalized RNA/DNA level with ligand (log10) [2]	normalized RNA/DNA level without ligand (log10) [3]	FACS-Seq fitted mean (log10) [4]
GGGGAA	0.623 ± 0.047	1.91 ± 0.032	1.66 ± 0.022	0.751 ± 0.032
GGGGAG	-0.274 ± 0.0067	1.812 ± 0.0043	1.46 ± 0.013	-0.0598 ± 0.036
AGGUAA	0.414 ± 0.059	1.87 ± 0.022	1.6 ± 0.06	0.443 ± 0.069
AGGUAC	0.133 ± 0.061	1.893 ± 0.017	1.72 ± 0.02	0.0782 ± 0.049
AGGUAG	0.161 ± 0.019	1.73 ± 0.019	1.3 ± 0.047	0.537 ± 0.019
AGGUAU	0.648 ± 0.15	1.871 ± 0.013	1.69 ± 0.03	0.665 ± 0.12
AGCUGA	0.203 ± 0.08	1.91 ± 0.043	1.74 ± 0.067	0.0306 ± 0.017
AGCUGC	0.448 ± 0.0077	2 ± 0.035	1.87 ± 0.076	0.755 ± 0.036
AGCUGG	-0.403 ± 0.022	1.91 ± 0.069	1.57 ± 0.035	-0.291 ± 0.096
CGCUGA	0.643 ± 0.033	1.9529 ± 0.00012	1.89 ± 0.03	0.635 ± 0.0074
CGCUGC	0.163 ± 0.06	1.98 ± 0.096	1.95 ± 0.083	0.518 ± 0.079
UGGAUG	0.4451 ± 0.0015	1.92 ± 0.025	1.659 ± 0.0063	0.341 ± 0.018
UGCCUG	0.608 ± 0.0066	1.91 ± 0.1	1.73 ± 0.042	0.712 ± 0.07
UGCGCG	0.142 ± 0.0059	1.94 ± 0.032	1.75 ± 0.035	0.383 ± 0.012
AGGCCG	0.147 ± 0.0087	1.89 ± 0.018	1.67 ± 0.054	0.366 ± 0.045
AGGCCA	0.668 ± 0.014	1.96 ± 0.016	1.86 ± 0.023	0.607 ± 0.064
AGGCCU	0.421 ± 0.032	1.94 ± 0.022	1.97 ± 0.069	0.554 ± 0.071
GGCUCA	0.301 ± 0.011	1.98 ± 0.031	1.91 ± 0.074	0.297 ± 0.024
GGCGAU	0.679 ± 0.071	1.97 ± 0.062	1.9 ± 0.063	0.587 ± 0.0063
CGGAUU	-0.13 ± 0.0099	1.94 ± 0.045	1.744 ± 0.0072	0.244 ± 0.014
AGCGGG	0.579 ± 0.16	1.9573 ± 0.00092	1.754 ± 0.0053	0.732 ± 0.094
AGCGGA	0.427 ± 0.044	1.945 ± 0.0055	1.71 ± 0.036	0.456 ± 0.021
GGCGUG	0.107 ± 0.021	1.91 ± 0.088	1.52 ± 0.022	0.291 ± 0.076
